Biological target: D-galactose receptor (human (endogenous in SHIN3))
Assay: flow cytometry on cells

For “TAMRA conjugated avidin (from UniProt P02701 25-152) (ligand)”, the mean value of fluorescence (FACS flow cytometry) was 10.9.

— PMC2743556
